# Experimental data reported in patent publication US10076576B2, “Minimally toxic prodrugs” (priority 2012, dated 2018).
# Several values for one entry are separate records, joined by “and”; a condition that tells them apart may be missing. Equal values may be shown once. Entries after “also recorded” stand apart in the source; their conditions may differ.
# What was measured:
# [1] = mouse, in vivo, iv, 86.2 umol/kg
# Protocol: Time evolution of plasma concentration (A, B) and of cardiac tissue concentration (C, D) of Doxorubicin or PhAc-ALGP-Dox and its metabolites after i.v. bolus injection to OF-1 female wild type mice at the dose of 86.2 μmol/kg. Results represent the mean concentration±SD (n=3).
# Pharmacokinetic tissue distribution studies were performed using OF-1 mice. […] At different time points after drug administration (5 min, 30 min, 1 h, 4 h, 7 h, 16 h and 24 h) 3 mice per group were sacrificed by cervical dislocation and blood and heart tissue were collected. Hearts were incised and rinsed carefully in phosphate buffer saline (to eliminate blood in the cardiac cavities), dried on paper and frozen in liquid nitrogen. They were stored until analysis. Blood samples were centrifuged (10 min, 2000 g, 4° C.) to separate the plasma fraction, which was stored for analysis. The hearts were homogenized with an Ultraturrax homogenizer in 1.5 mL water. The protein concentration was measured using the microBCA protein assay (Pierce). The drug tissue quantification was made by HPLC after extraction: 150 μL of acetonitrile was added to the 50 μL samples. Samples were vortexed and centrifuged for 10 min at 13 000 rpm at room temperature. Supernatant was collected. Samples were buffered by addition of 200 mM formiate buffer pH 4.5 (1 V sample supernatant+3 V buffer) before HPLC analysis (fluo detection ex=235 nm em=560 nm).
# [2] = Stability in citrated human blood; settings: 5 hours incubation at 37° C. in citrated human blood, 50 μM
# [3] = molecular target: T1, TOP (recombinant human thimet oligopeptidase) (Homo sapiens, UniProt P52888); test: Reactivation assay with purified TOP; assay type: biochemical; settings: 3 h at 37° C., 50 μM compound
# T1 construct: purchased R&D systems 3439-ZN
# Protocol: (§1) TOP (recombinant human thimet oligopeptidase, R&D systems, Ref 3439-ZN) was diluted at 10 nM in a solution of 50 mM Tris-HCl pH 7.4/0.5M NaCl/0.1M DTT. CD26 and FAP were diluted at 1 μg/mL in a Tris-HCl pH 7.5 buffer. Reactions were initiated by addition of 50 μM of each compound to enzymes solutions (1 V enzyme solution+1 V 100 μM drug solution). Samples were incubated for 0, 1, or 3 hours at 37° C. in a water bath in the presence of purified enzymes. Fifty μL of sample were collected at each time point and processed as described above for human plasma. Activation of Suc-βALAL-dox was tested in parallel as a reference.
# [4] = test system: LS-174T tumor cell secreted peptidases; test: Reactivation assay in LS174T tumor cell conditioned medium; assay type: biochemical, human; settings: 5 h at 37° C.
# Protocol: Sub-confluent cultures of LS-174T tumor cells were washed twice with a saline phosphate buffer solution, and fresh culture medium (DMEM-F12 without phenol red) containing 0.02% bovine serum albumin is added (100 μl/cm^2). After 24 hours incubation, the conditioned medium is collected, centrifuged for 10 minutes at 300 g, buffered with 1 M Tris-HCl, pH 7.4 (1 volume of buffer+19 volumes of medium) and concentrated 20 times by […] (cutoff threshold of 10 kDa).
# Drug compounds (50 μM) were incubated for 0, 1, 3 or 5 hours at 37° C. in the presence of freshly prepared LS174T tumor cell conditioned medium. Fifty μL of sample were collected at each time point and processed as described above for human plasma.
# CD26 = CD26 (Homo sapiens, UniProt P27487); test: Reactivation assay with purified CD26; assay type: biochemical; settings: CD26 1 μg/ml
# Protocol: as §1
# FAP = molecular target: T2, FAP (Homo sapiens, UniProt Q12884); test: Reactivation assay with purified FAP; assay type: biochemical
# T2 sequence (Q12884 1-760): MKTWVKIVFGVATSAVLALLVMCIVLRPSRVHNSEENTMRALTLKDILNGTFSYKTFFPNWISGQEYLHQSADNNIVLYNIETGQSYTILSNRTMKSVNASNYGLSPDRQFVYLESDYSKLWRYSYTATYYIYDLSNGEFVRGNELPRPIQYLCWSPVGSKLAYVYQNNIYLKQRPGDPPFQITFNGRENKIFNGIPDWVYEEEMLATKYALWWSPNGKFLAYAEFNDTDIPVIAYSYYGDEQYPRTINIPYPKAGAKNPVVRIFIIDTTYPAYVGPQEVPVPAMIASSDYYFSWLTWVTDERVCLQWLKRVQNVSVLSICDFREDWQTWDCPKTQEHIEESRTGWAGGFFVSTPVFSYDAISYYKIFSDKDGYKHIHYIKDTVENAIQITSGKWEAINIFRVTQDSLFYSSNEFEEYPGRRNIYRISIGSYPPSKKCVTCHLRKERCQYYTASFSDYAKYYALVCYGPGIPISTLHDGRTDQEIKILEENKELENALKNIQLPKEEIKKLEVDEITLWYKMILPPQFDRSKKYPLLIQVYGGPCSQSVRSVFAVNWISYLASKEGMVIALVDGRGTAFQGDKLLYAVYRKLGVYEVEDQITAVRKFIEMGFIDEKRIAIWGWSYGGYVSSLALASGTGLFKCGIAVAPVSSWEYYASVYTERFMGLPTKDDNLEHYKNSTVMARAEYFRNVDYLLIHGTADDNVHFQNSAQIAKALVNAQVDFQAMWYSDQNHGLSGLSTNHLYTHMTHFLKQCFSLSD
# Protocol: as §1
# [5] = test system: LoVo colon carcinoma xenografts; test: Activation at the tumor site after single iv bolus, LoVo xenograft; assay type: in vivo, NMRI nude mice; settings: 24 hours after single iv injection, 15-620 μmol/kg
# Protocol: FIG. 6. PhAc-ALGP-Dox was administered at increasing concentrations (15, 35, 50, 100, 200, 300, 460, 620 μmol/kg) by intravenous injection to NMRI nude mice bearing LoVo colon carcinoma xenografts (3 mice per group). After 24 hours, mice were sacrificed and tumors were collected. Doxorubicin tumor concentration was determined after extraction by HPLC analysis. Results represent the average Doxorubicin tumor concentration (pmol/mg protein)±SD.
# Drugs or controls were administered four weeks after subcutaneous implantation of the xenograft. […] The PhAc-ALGP-Dox conjugate was dissolved in saline at increasing doses (1.5, 3.5, 5, 10, 20, 30, 46, and 62 mM). […] Twenty-four hours after injection, mice were sacrificed by cervical dislocation and tumors were collected, rinsed in phosphate buffer saline and homogenized. An extraction of drugs from tumor homogenates was performed with acetonitrile and Doxorubicin present in tumors was quantified by HPLC analysis.
# [6] = Stability in citrated human plasma; settings: 5 hours incubation at 37° C. in citrated human plasma (pH7), 50 μM
# Protocol: The drug conjugates (50 μM) were mixed with human plasma and incubated for 5 hours at 37° C. in a water bath. […] Supernatant was collected.
# [7] = molecular target: T3, CD10 (recombinant human neprilysin) (Homo sapiens, UniProt P08473); test: Reactivation assay with purified CD10; assay type: biochemical; settings: 3 h at 37° C., 50 μM compound
# T3 construct: purchased R&D systems 1182-ZN
# [8] = In vitro cytotoxicity on control fibroblasts (neutral red uptake); assay type: cell-based, mouse; settings: mouse, inactivated mouse embryonic fibroblasts (MEF), 20 μg/ml
# Protocol: FIG. 5. In vitro cellular toxicity of PhAc-ALGP-Dox and Doxorubicin on Cor.At® cells (mouse embryonic stem cell derived cardiomyocytes). As non-specific control, the test was also performed on inactivated mouse embryonic fibroblasts (MEF). Cells were cultured for 48 h in the presence of drugs and a neutral red uptake test was performed to determine cell viability. Results represent the cytotoxicity curves. The IC50 values were calculated from the cytotoxicity curves using the Prism GraphPad software 5.0.
# The in vitro cardiotoxicity test was carried out in a relevant and predictive in vitro model for cardiac safety screening in early lead optimization using mouse embryonic stem cell derived cardiomyocytes (Cor.At®, Axiogenesis (Germany)). Cor.At® cardiomyocytes provide a standardized, homogenous and reproducible cell system for the in vitro classification of a compound's cardio-cytotoxic potential. After incubation with test compounds, the neutral red uptake test was used to determine effects which directly affect the viability and integrity of cardiac cells when compared to a non-specific reference cell type, e.g. mouse fibroblasts (MEF).
# T3 sequence (P08473 52-750 limits assumed): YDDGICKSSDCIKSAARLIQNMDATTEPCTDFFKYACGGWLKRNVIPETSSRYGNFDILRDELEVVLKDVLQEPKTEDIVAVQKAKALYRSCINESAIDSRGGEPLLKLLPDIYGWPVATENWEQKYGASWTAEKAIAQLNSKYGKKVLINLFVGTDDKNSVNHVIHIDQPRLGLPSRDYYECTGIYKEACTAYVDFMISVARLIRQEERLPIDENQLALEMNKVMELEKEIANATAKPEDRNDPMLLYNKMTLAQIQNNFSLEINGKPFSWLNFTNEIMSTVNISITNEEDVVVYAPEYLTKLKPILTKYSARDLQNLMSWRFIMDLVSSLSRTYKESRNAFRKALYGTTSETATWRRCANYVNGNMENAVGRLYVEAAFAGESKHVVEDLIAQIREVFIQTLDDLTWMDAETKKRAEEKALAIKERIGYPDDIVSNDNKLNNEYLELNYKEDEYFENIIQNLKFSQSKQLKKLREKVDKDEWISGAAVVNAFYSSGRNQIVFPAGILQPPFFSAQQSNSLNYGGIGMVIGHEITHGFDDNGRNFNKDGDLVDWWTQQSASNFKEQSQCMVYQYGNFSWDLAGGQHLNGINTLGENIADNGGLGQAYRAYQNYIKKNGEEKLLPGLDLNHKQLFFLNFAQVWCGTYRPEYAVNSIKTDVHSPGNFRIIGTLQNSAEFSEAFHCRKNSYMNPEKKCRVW
# Sequence of CD26 (P27487 whole entry): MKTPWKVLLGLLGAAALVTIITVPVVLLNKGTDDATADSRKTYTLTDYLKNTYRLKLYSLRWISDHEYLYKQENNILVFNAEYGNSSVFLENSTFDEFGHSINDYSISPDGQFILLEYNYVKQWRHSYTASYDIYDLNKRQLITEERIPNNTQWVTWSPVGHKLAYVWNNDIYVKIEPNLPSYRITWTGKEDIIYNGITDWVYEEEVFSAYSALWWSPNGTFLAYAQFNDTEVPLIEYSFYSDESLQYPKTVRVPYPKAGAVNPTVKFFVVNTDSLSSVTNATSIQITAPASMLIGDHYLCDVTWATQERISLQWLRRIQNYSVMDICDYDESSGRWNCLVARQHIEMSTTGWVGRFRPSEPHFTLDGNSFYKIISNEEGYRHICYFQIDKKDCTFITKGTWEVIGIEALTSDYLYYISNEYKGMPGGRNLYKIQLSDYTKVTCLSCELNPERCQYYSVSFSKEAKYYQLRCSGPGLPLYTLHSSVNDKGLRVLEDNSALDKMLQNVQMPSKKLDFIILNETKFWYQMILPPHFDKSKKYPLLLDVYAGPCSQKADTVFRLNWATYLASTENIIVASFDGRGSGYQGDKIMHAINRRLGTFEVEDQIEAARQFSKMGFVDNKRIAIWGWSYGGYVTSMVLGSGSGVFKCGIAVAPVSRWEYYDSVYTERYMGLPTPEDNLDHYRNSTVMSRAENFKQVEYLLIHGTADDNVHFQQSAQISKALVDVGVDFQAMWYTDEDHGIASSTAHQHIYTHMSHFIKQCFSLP
# T1 sequence (P52888 whole entry): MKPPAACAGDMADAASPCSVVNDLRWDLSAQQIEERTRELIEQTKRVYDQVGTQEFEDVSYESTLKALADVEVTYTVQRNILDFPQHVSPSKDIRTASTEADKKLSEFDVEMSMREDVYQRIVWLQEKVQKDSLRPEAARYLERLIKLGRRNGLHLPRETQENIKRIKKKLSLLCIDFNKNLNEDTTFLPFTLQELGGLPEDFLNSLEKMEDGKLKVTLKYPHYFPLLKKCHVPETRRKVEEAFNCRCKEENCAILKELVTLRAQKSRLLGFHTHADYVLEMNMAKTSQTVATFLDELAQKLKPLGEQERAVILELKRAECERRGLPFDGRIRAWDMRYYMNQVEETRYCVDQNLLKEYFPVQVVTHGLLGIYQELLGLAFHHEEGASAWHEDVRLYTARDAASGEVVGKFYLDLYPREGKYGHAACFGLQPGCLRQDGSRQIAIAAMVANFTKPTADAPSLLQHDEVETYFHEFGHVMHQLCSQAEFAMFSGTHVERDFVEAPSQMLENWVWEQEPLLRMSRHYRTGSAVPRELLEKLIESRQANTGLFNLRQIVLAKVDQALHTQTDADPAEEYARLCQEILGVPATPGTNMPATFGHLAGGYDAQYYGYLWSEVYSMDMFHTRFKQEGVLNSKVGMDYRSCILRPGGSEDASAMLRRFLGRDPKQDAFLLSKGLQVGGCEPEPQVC
smiles,measurement,setting,value
"COc1cccc2c1C(=O)c1c(O)c3c(c(O)c1C2=O)C[C@@](O)(C(=O)CO)C[C@@H]3O[C@H]1C[C@H](N)[C@H](O)[C@H](C)O1 [Doxorubicin, reference compound]",Heart AUC of Dox,[1],5863 pmol · h/mg protein
"COc1cccc2c1C(=O)c1c(O)c3c(c(O)c1C2=O)CC(O)(C(=O)CO)CC3OC1CC(NC(=O)C2CCCN2C(=O)CNC(=O)C(CC(C)C)NC(=O)C(C)NC(=O)CP(=O)(O)O)C(O)C(C)O1 (stereo not drawn) [PhAc-ALGP-Dox, PhAc-ALGP-doxorubicin]",% metabolites released: Dox,[2],6%
same,% metabolites released: GP-dox,[2],3%
same,% metabolites released: P-Dox,[2],0%
same,total % metabolites,[2],9%
same,% Metabolites released after 3 h (TOP 5 nM),[3],72% and 72 ± 14%
same,% Metabolites released after 5 h (LS174T CM20xcc),[4]; 50 μM compound,81 ± 31%
same,% Dox detected after 5 h (LS174T conditioned medium),[4]; metabolite Dox,24%
same,% GP-Dox detected after 5 h (LS174T conditioned medium),[4]; metabolite GP-Dox,56%
same,hydrolysis by CD26 (in words),CD26,Neither CD26 nor FAP hydrolized; also recorded: did not hydrolyze
same,hydrolysis by FAP (in words),FAP,Neither CD26 nor FAP hydrolized; also recorded: did not hydrolyze
same,injected dose at which Dox tumor concentration reaches a plateau,[5],200 µmol/kg
same,% metabolites released: Dox,[6],2%
same,% metabolites released: GP-dox,[6],0%
same,% metabolites released: P-Dox,[6],0%
same,total % metabolites,[6],2%
same,% Metabolites released after 3 h (CD10 10 nM),[7],25% and 25 ± 4%
same,"viability at 48 h, 20 µg/mL",[8],81%
